# Test results from paper PMC9612331.
# Experiments:
# [1] = biological target: Aleutian mink disease virus (AMDV) capsid protein VP2 (Aleutian mink disease virus (AMDV)); assay: cryo-EM structure
# [2] = biological target: Human parvovirus 4 (PARV4) capsid protein VP2 (human parvovirus 4 (PARV4)); assay: cryo-EM structure
Substance,stoichiometry N [1],stoichiometry N [2]
Aleutian mink disease virus (AMDV) capsid protein VP2 (natural protein),60,
Human parvovirus 4 (PARV4) capsid protein VP2 (natural protein),,60
